Measurements published in IntAct's records for PubMed 31515488.

B1: Nucleoside diphosphate kinase homolog 5 (Homo sapiens), P56597 (parent)
chain: MEISMPPPQIYVEKTLAIIKPDIVDKEEEIQDIILRSGFTIVQRRKLRLSPEQCSNFYVEKYGKMFFPNLTAYMSSGPLVAMILARHKAISYWLELLGPNNSLVAKETHPDSLRAIYGTDDLRNALHGSNDFAAAEREIRFMFPEVIVEPIPIGQAAKDYLNLHIMPTLLEGLTELCKQKPADPLIWLADWLLKNNPNKPKLCHHPIVEEPY
partner: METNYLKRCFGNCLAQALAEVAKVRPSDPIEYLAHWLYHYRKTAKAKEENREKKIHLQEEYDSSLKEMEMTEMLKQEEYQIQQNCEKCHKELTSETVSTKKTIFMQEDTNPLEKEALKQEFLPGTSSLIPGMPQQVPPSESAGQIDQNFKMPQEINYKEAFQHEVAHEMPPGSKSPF
B2: Myomegalin (Homo sapiens), Q5VU43-2 (parent)
chain: MKEICRICARELCGNQRRWIFHTASKLNLQVLLSHVLGKDVPRDGKAEFACSKCAFMLDRIYRFDTVIARIEALSIERLQKLLLEKDRLKFCIASMYRKNNDDSGAEIKAGNGTVDMSVLPDARYSALLQEDFAYSGFECWVENEDQIQEPHSCHGSEGPGNRPRRCRGCAALRVADSDYEAICKVPRKVARSISCGPSSRWSTSICTEEPALSEVGPPDLASTKVPPDGESMEEETPGSSVESLDASVQASPPQQKDEETERSAKELGKCDCCSDDQAPQHGCNHKLELALSMIKGLDYKPIQSPRGSRLPIPVKSSLPGAKPGPSMTDGVSSGFLNRSLKPLYKTPVSYPLELSDLQELWDDLCEDYLPLRVQPMTEELLKQQKLNSHETTITQQSVSDSHLAELQEKIQQTEATNKILQEKLNEMSYELKCAQESSQKQDGTIQNLKETLKSRERETEELYQVIEGQNDTMAKLREMLHQSQLGQLHSSEGTSPAQQQVALLDLQSALFCSQLEIQKLQRVVRQKERQLADAKQCVQFVEAAAHESEQQKEASWKHNQELRKALQQLQEELQNKSQQLRAWEAEKYNEIRTQEQNIQHLNHSLSHKEQLLQEFRELLQYRDNSDKTLEANEMLLEKLRQRIHDKAVALERAIDEKFSALEEKEKELRQLRLAVRERDHDLERLRDVLSSNEATMQSMESLLRAKGLEVEQLSTTCQNLQWLKEEMETKFSRWQKEQESIIQQLQTSLHDRNKEVEDLSATLLCKLGPGQSEIAEELCQRLQRKERMLQDLLSDRNKQVLEHEMEIQGLLQSVSTREQESQAAAEKLVQALMERNSELQALRQYLGGRDSLMSQAPISNQQAEVTPTGRLGKQTDQGSMQIPSRDDSTSLTAKEDVSIPRSTLGDLDTVAGLEKELSNAKEELELMAKKERESQMELSALQSMMAVQEEELQVQAADMESLTRNIQIKEDLIKDLQMQLVDPEDIPAMERLTQEVLLLREKVASVESQGQEISGNRRQQLLLMLEGLVDERSRLNEALQAERQLYSSLVKFHAHPESSERDRTLQVELEGAQVLRSRLEEVLGRSLERLNRLETLAAIGGAAAGDDTEDTSTEFTDSIEEEAAHHSHQQL
partner: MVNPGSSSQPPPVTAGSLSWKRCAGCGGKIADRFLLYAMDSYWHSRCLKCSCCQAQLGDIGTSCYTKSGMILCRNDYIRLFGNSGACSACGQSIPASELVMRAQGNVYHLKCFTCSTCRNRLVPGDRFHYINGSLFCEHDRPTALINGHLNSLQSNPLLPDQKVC
B3: Protein N-lysine methyltransferase METTL21A (Homo sapiens), Q8WXB1 (parent)
chain: MALVPYEETTEFGLQKFHKPLATFSFANHTIQIRQDWRHLGVAAVVWDAAIVLSTYLEMGAVELRGRSAVELGAGTGLVGIVAALLGAHVTITDRKVALEFLKSNVQANLPPHIQTKTVVKELTWGQNLGSFSPGEFDLILGADIIYLEETFTDLLQTLEHLCSNHSVILLACRIRYERDNNFLAMLERQFTVRKVHYDPEKDVHIYEAQKRNQKEDL
B4: G patch domain and ankyrin repeat-containing protein 1 (Homo sapiens), O95872 (parent)
chain: MSRPLLITFTPATDPSDLWKDGQQQPQPEKPESTLDGAAARAFYEALIGDESSAPDSQRSQTEPARERKRKKRRIMKAPAAEAVAEGASGRHGQGRSLEAEDKMTHRILRAAQEGDLPELRRLLEPHEAGGAGGNINARDAFWWTPLMCAARAGQGAAVSYLLGRGAAWVGVCELSGRDAAQLAEEAGFPEVARMVRESHGETRSPENRSPTPSLQYCENCDTHFQDSNHRTSTAHLLSLSQGPQPPNLPLGVPISSPGFKLLLRGGWEPGMGLGPRGEGRANPIPTVLKRDQEGLGYRSAPQPRVTHFPAWDTRAVAGRERPPRVATLSWREERRREEKDRAWERDLRTYMNLEF
partner: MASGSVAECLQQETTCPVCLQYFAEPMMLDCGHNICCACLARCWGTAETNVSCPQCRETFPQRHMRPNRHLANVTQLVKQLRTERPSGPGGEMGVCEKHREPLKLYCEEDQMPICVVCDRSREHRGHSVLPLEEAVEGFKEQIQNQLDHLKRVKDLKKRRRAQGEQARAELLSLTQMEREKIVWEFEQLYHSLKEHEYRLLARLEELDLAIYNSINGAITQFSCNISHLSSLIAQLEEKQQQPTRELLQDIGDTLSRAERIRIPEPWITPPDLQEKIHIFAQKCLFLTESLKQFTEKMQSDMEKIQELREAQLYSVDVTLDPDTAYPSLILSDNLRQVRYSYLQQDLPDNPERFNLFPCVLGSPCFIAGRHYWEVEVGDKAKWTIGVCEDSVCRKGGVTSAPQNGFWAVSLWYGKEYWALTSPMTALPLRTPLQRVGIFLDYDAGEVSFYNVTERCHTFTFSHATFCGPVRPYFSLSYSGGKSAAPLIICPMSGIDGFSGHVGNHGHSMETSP
B5: H/ACA ribonucleoprotein complex subunit 3 (Homo sapiens), Q9NPE3 (parent)
chain: MFLQYYLNEQGDRVYTLKKFDPMGQQTCSAHPARFSPDDKYSRHRITIKKRFKVLMTQQPRPVL
partner: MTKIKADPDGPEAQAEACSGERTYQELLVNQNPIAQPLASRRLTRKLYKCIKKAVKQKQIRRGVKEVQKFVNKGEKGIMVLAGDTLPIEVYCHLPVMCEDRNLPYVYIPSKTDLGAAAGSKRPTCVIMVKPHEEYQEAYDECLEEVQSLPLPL
B6: Kelch-like protein 40 (Homo sapiens), Q2TBA0 (parent)
chain: MALGLEQAEEQRLYQQTLLQDGLKDMLDHGKFLDCVVRAGEREFPCHRLVLAACSPYFRARFLAEPERAGELHLEEVSPDVVAQVLHYLYTSEIALDEASVQDLFAAAHRFQIPSIFTICVSFLQKRLCLSNCLAVFRLGLLLDCARLAVAARDFICAHFTLVARDADFLGLSADELIAIISSDGLNVEKEEAVFEAVMRWAGSGDAEAQAERQRALPTVFESVRCRLLPRAFLESRVERHPLVRAQPELLRKVQMVKDAHEGRITTLRKKKKGKDGAGAKEADKGTSKAKAEEDEEAERILPGILNDTLRFGMFLQDLIFMISEEGAVAYDPAANECYCASLSNQVPKNHVSLVTKENQVFVAGGLFYNEDNKEDPMSAYFLQFDHLDSEWLGMPPLPSPRCLFGLGEALNSIYVVGGREIKDGERCLDSVMCYDRLSFKWGESDPLPYVVYGHTVLSHMDLVYVIGGKGSDRKCLNKMCVYDPKKFEWKELAPMQTARSLFGATVHDGRIIVAAGVTDTGLTSSAEVYSITDNKWAPFEAFPQERSSLSLVSLVGTLYAIGGFATLETESGELVPTELNDIWRYNEEEKKWEGVLREIAYAAGATFLPVRLNVLCLTKM
B7: Vacuolar protein sorting-associated protein 4B (Homo sapiens), O75351 (parent)
chain: MSSTSPNLQKAIDLASKAAQEDKAGNYEEALQLYQHAVQYFLHVVKYEAQGDKAKQSIRAKCTEYLDRAEKLKEYLKNKEKKAQKPVKEGQPSPADEKGNDSDGEGESDDPEKKKLQNQLQGAIVIERPNVKWSDVAGLEGAKEALKEAVILPIKFPHLFTGKRTPWRGILLFGPPGTGKSYLAKAVATEANNSTFFSISSSDLVSKWLGESEKLVKNLFQLARENKPSIIFIDEIDSLCGSRSENESEAARRIKTEFLVQMQGVGVDNDGILVLGATNIPWVLDSAIRRRFEKRIYIPLPEPHARAAMFKLHLGTTQNSLTEADFRELGRKTDGYSGADISIIVRDALMQPVRKVQSATHFKKVRGPSRADPNHLVDDLLTPCSPGDPGAIEMTWMDVPGDKLLEPVVSMSDMLRSLSNTKPTVNEHDLLKLKKFTEDFGQEG
B8: Zinc finger protein RFP (Homo sapiens), P14373 (parent)
chain: B4 partner
partner: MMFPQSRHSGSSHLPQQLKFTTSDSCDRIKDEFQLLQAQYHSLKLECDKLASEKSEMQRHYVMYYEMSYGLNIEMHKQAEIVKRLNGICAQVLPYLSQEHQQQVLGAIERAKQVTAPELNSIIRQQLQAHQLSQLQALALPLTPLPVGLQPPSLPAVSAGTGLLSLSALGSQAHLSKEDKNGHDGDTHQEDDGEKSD
B9: THAP domain-containing protein 8 (Homo sapiens), Q8NA92 (parent)
chain: MPKYCRAPNCSNTAGRLGADNRPVSFYKFPLKDGPRLQAWLQHMGCEHWVPSCHQHLCSEHFTPSCFQWRWGVRYLRPDAVPSIFSRGPPAKSQRRTRSTQKPVSPPPPLQKNTPLPQSPAIPVSGPVRLVVLGPTSGSPKTVATMLLTPLAPAPTPERSQPEVPAQQAQTGLGPVLGALQRRVRRLQRCQERHQAQLQALERLAQQLHGESLLARARRGLQRLTTAQTLGPEESQTFTIICGGPDIAMVLAQDPAPATVDAKPELLDTRIPSA

Variants of: B1
Settings: with dydc2_human DYDC2, Q96IM9

Variant	effect of a mutation on the interaction
I165M	with no effect
L103F	with no effect
S50N	with no effect
N198D	with no effect

Variants of: B2
Settings: with lmo4_human LMO4, P61968

Variant	effect of a mutation on the interaction
N28S	with no effect

Variants of: B3
Settings: with FAM200C

Variant	effect of a mutation on the interaction
A209P	disrupting interaction strength

Variants of: B4
Settings: with tri27_human TRIM27, P14373

Variant	effect of a mutation on the interaction
D56E	disrupting interaction strength

Variants of: B5
Settings: with nhp2_human NHP2, Q9NX24

Variant	effect of a mutation on the interaction
D12H	with no effect

Variants of: B6
Settings: with smip4_human SPMIP4, Q8N865
Chain of smip4_human SPMIP4, Q8N865 (Q8N865 whole entry): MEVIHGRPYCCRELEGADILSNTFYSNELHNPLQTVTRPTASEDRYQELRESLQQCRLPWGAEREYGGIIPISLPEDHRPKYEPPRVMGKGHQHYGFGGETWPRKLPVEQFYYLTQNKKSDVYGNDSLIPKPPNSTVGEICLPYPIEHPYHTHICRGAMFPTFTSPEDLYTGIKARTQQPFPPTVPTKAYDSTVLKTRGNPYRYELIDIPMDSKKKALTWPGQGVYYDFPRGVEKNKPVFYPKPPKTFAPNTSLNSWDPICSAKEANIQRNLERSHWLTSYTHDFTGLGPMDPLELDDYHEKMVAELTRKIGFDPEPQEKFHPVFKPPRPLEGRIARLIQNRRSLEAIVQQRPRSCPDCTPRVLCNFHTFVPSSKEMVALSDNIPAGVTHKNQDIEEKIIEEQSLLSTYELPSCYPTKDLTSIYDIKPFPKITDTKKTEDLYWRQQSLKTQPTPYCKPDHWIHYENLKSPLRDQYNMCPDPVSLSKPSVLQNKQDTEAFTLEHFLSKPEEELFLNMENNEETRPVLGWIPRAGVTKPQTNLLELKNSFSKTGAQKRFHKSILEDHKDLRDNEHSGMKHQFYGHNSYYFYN

Variant	effect of a mutation on the interaction
D484N	with no effect

Variants of: B7
Settings: with anchr_human ZFYVE19, Q96K21
Chain of anchr_human ZFYVE19, Q96K21 (Q96K21 whole entry): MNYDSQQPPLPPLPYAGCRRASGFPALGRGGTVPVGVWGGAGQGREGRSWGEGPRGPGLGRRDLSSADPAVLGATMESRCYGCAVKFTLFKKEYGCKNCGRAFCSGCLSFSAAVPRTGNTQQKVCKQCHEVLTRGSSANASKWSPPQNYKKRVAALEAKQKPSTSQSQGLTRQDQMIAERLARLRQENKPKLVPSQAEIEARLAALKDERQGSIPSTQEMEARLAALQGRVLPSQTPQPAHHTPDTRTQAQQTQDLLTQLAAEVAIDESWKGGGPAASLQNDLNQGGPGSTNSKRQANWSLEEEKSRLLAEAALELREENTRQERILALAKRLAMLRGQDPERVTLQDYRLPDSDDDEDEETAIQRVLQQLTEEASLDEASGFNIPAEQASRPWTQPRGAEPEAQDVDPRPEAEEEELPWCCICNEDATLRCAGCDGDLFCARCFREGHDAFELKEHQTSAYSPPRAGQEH

Variant	effect of a mutation on the interaction
I58M	with no effect

Variants of: B8
Settings: with tle5_human TLE5, Q08117

Variant	effect of a mutation on the interaction
N355S	with no effect

Variants of: B9
Settings: with tfp11_human TFIP11, Q9UBB9
Chain of tfp11_human TFIP11, Q9UBB9 (Q9UBB9 whole entry): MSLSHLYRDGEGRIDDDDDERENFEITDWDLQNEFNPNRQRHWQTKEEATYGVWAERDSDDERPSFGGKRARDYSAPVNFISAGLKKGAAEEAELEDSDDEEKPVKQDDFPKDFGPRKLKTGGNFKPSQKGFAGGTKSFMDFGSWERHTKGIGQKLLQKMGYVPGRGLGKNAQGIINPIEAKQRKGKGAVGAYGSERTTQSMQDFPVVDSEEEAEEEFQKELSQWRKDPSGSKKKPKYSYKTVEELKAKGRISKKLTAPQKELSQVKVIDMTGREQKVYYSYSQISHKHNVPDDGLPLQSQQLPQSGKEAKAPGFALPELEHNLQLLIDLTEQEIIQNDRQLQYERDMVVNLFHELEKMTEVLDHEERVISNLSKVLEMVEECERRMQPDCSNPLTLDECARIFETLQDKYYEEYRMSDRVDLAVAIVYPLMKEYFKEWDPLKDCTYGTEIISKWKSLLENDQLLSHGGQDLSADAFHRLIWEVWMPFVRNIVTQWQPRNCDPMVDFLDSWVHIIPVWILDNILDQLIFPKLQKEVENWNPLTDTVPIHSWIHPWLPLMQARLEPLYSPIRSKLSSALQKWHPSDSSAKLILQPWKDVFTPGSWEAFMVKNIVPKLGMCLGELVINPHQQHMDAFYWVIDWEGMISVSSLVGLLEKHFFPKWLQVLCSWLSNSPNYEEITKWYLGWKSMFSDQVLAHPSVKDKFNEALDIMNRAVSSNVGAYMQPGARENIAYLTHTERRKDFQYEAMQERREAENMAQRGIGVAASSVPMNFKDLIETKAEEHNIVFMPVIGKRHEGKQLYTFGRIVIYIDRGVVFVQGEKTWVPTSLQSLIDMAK

Variant	effect of a mutation on the interaction
R185Q	with no effect
P157S	with no effect
